B1: His6-myc-tagged wild-type eIF2Bα [human] / myc-tagged eIF2Bβ [not stated] (parent)
chain 1: MDDKELIEYFKSQMKEDPDMASAVAAIRTLLEFLKRDKGETIQGLRANLTSAIETLCGVDSSVAVSSGGELFLRFISLASLEYSDYSKCKKIMIERGELFLRRISLSRNKIADLCHTFIKDGATILTHAYSRVVLRVLEAAVAAKKRFSVYVTESQPDLSGKKMAKALCHLNVPVTVVLDAAVGYIMEKADLVIVGAEGVVENGGIINKIGTNQMAVCAKAQNKPFYVVAESFKFVRLFPLNQQDVPDKFKYKADTLKVAQTGQDLKEEHPWVDYTAPSLITLLFTDLGVLTPSAVSDELIKLYL
chain 2: MPGSAAKGSELSERIESFVETLKRGGGPRSSEEMARETLGLLRQIITDHRWSNAGELMELIRREGRRMTAAQPSETTVGNMVRRVLKIIREEYGRLHGRSDESDQQESLHKLLTSGGLNEDFSFHYAQLQSNIIEAINELLVELEGTMENIAAQALEHIHSNEVIMTIGFSRTVEAFLKEAARKRKFHVIVAECAPFCQGHEMAVNLSKAGIETTVMTDAAIFAVMSRVNKVIIGTKTILANGALRAVTGTHTLALAAKHHSTPLIVCAPMFKLSPQFPNEEDSFHKFVAPEEVLPFTEGDILEKVSVHCPVFDYVPPELITLFISNIGGNAPSYIYRLMSELYHPDDHVL
B2: His6-myc-tagged wild-type eIF2Bα [human] / myc-tagged eIF2Bγ [not stated] (parent)
chain 1: B1 chain 1
chain 2: MEFQAVVMAVGGGSRMTDLTSSIPKPLLPVGNKPLIWYPLNLLERVGFEEVIVVTTRDVQKALCAEFKMKMKPDIVCIPDDADMGTADSLRYIYPKLKTDVLVLSCDLITDVALHEVVDLFRAYDASLAMLMRKGQDSIEPVPGQKGKKKAVEQRDFIGVDSTGKRLLFMANEADLDEELVIKGSILQKHPRIRFHTGLVDAHLYCLKKYIVDFLMENGSITSIRSELIPYLVRKQFSSASSQQGQEEKEEDLKKKELKSLDIYSFIKEANTLNLAPYDACWNACRGDRWEDLSRSQVRCYVHIMKEGLCSRVSTLGLYMEANRQVPKLLSALCPEEPPVHSSAQIVSKHLVGVDSLIGPETQIGEKSSIKRSVIGSSCLIKDRVTITNCLLMNSVTVEEGSNIQGSVICNNAVIEKGADIKDCLIGSGQRIEAKAKRVNEVIVGNDQLMEI

The variants in the first experiment derive from B1. As to the kind of experiment: Ni2+ agarose affinity purification (pull-down), western blot for myc tag, quantified. The note with it: with myc-tagged eIF2Bβ; HEK293 cell lysates; 3 independent experiments; read off a plot. Background: Immunoblotting shows a protein as a band on a membrane.
Take chain 1 MDDKELIEYFKSQMKEDPDMASAVAAIRTLLEFLKRDKGETIQGLRANLTSAIETLCGVDSSVAVSSGGELFLRFISLASLEYSDYSKCKKIMIERGELFLRRISLSRNKIADLCHTFIKDGATILTHAYSRVVLRVLEAAVAAKKRFSVYVTESQPDLSGKKMAKALCHLNVPVTVVLDAAVGYIMEKADLVIVGAEGVVENGGIIYKIGTNQMAVCAKAQNKPFYVVAESFKFVRLFPLNQQDVPDKFKYKADTLKVAQTGQDLKEEHPWVDYTAPSLITLLFTDLGVLTPSAVSDELIKLYL [chain 1 N208Y]: the ratio to parent was 1. As to chain 1 MDDKELIEYFKSQMKEDPDMASAVAAIRTLLEFLKRDKGETIQGLRANLTSAIETLCGVDSSVAVSSGGELFLRFISLASLEYSDYSKCKKIMIERGELFLRRISLSRNKIADLCHTFIKDGATILTHAYSRVVLRVLEAAVAAKKRFSVYVTESQPDLSGKKMAKALCHLNVPVTVVLDAAVGYIMEKADLVIVGAEGVVENGGIINKIGTNQMAVCAKAQNKPFYVVAESFKFVRLFPLNQQDVPDKFKYKADTLKVAQTGQDLKEEHPWVDYTARSLITLLFTDLGVLTPSAVSDELIKLYL [chain 1 P278R], the ratio to parent was 0.66.

In another experiment the parent is B2. The experiment is described as above. The note with it: with myc-tagged eIF2Bγ; HEK293 cell lysates; 3 independent experiments; read off a plot.
In the case of chain 1 MDDKELIEYFKSQMKEDPDMASAVAAIRTLLEFLKRDKGETIQGLRANLTSAIETLCGVDSSVAVSSGGELFLRFISLASLEYSDYSKCKKIMIERGELFLRRISLSRNKIADLCHTFIKDGATILTHAYSRVVLRVLEAAVAAKKRFSVYVTESQPDLSGKKMAKALCHLNVPVTVVLDAAVGYIMEKADLVIVGAEGVVENGGIIYKIGTNQMAVCAKAQNKPFYVVAESFKFVRLFPLNQQDVPDKFKYKADTLKVAQTGQDLKEEHPWVDYTAPSLITLLFTDLGVLTPSAVSDELIKLYL [chain 1 N208Y], the ratio to parent is 1.2. For chain 1 MDDKELIEYFKSQMKEDPDMASAVAAIRTLLEFLKRDKGETIQGLRANLTSAIETLCGVDSSVAVSSGGELFLRFISLASLEYSDYSKCKKIMIERGELFLRRISLSRNKIADLCHTFIKDGATILTHAYSRVVLRVLEAAVAAKKRFSVYVTESQPDLSGKKMAKALCHLNVPVTVVLDAAVGYIMEKADLVIVGAEGVVENGGIINKIGTNQMAVCAKAQNKPFYVVAESFKFVRLFPLNQQDVPDKFKYKADTLKVAQTGQDLKEEHPWVDYTARSLITLLFTDLGVLTPSAVSDELIKLYL [chain 1 P278R], the ratio to parent was 0.95.
